Data on 1 molecule can be found in article PMC3035472.

In this data set the target is sigma A (primary sigma factor), wild type, refolded from inclusion bodies (Bacillus subtilis, UniProt P06224 1-371). As to the kind of experiment: EMSA. (In EMSA bound probe runs differently from free probe, usually more slowly.)
sigma A (primary sigma factor), wild type, refolded from inclusion bodies, sequence (P06224 whole entry): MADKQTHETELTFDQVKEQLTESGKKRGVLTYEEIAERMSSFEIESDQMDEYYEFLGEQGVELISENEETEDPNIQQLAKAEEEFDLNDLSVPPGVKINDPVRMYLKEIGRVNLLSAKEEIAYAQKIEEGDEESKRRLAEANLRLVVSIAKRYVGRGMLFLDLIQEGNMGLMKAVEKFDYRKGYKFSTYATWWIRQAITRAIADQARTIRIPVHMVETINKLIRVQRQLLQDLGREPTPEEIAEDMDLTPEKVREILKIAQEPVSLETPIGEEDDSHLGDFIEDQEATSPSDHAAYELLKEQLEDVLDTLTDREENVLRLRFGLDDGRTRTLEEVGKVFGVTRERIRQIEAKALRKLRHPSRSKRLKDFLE

B1: tgbp3 cDNA fragment (non-promoter) (dsDNA)
DNA 1: AGACTACCATGGCTCTAAACACTGACACACTATGCATCATTCTGTTCATACTAATATTAGGCATCCTATATAATATACTTCAACAGCATCTGCCCCCACCATGTGAAATAATAATAAACGGGCACACTATATCCATTAGGGGCAACTGCTACCACACCACCTCCAGCCTCGAGCACCAC
DNA 2: GTGGTGCTCGAGGCTGGAGGTGGTGTGGTAGCAGTTGCCCCTAATGGATATAGTGTGCCCGTTTATTATTATTTCACATGGTGGGGGCAGATGCTGTTGAAGTATATTATATAGGATGCCTAATATTAGTATGAACAGAATGATGCATAGTGTGTCAGTGTTTAGAGCCATGGTAGTCT
Regarding B1, the binding result is “binds”.
